Test results published in patent US20240409645A1 (DUALYX, published 2024).

T1: human IL-2Rβ (human, UniProt P14784 27-240, limits assumed)
T1 construct: recombinant protein, coated or immobilised; also called hu IL-2R; IL-2R beta
T1 sequence: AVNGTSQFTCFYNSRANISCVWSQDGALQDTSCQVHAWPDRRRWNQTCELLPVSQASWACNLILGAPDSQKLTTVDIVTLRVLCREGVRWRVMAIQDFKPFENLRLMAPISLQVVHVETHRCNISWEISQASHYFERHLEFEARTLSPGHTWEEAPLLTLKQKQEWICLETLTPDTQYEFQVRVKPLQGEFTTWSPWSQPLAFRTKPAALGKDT


Columns and labels:
[1] = target: T1, human IL-2Rβ; assay: SPR, P.E. off-rate
Description: SPR was performed to determine dissociation rates using Biacore 3000 instrument (GE Healthcare). Briefly, human and mouse IL-2R proteins were immobilized on carboxylmethyl dextran sensor chip (CM5) at approximately 2500 RUs using amine coupling in acetate buffer (GE Healthcare). The VHH-containing P.E. were loaded with a flow rate of 30 uL/min and the off-rates were measured over a 120s period.

[2] = target: T1, human IL-2Rβ; assay: P.E. ELISA, coated protein
Description: In a binding ELISA, human or mouse IL-2Rα, IL-2Rβ and IL-2Rγ proteins were coated directly on maxisorp microtiter plates overnight at 4° C. Free binding sites were blocked using 4% Marvel in PBS for 1 hour. Next, 1:5 dilution of P.E. in 1% Marvel/PBS were added to wells and incubated for 1 hour. […] Binding specificity was determined based on O.D. at 450 nm values compared to negative controls.

Row | Binder | koff [1] [s⁻¹] | P.E. binding ELISA OD [2] [OD450 nm]
1 | FJ1427 P035MP02A07 (VHH, soluble VHH in periplasmic extract; also called clone nr) VHH: QVQLVESGGGLVQAGGSLRLSCAVSGDVFVRYTMAWFRQAPGKEREFVATVTDSGRTTEYVDSVKGRFTVSRDNAKNTVYLQMNNLKPEDTAVYYCAANTDYFRIRSLDANTWGQGTQVTVSS | 0.00211 | 0.791
2 | FJ1427_P035MP02C10 (VHH, soluble VHH in periplasmic extract; also called clone nr) VHH: QVQLVESGGGLVQAGGSLRLACALSGDVFVRYTMAWFRQAPGKEREFVASVTDSGRTTDYVASVQGRFTVSRDNNKNTVYLQMNSLKPEDTAVYYCAANTDYFQIRSLDRNTWGQGTQVTVSS | 0.000521 | 1.29
3 | FJ1427_P035MP02A08 (VHH, soluble VHH in periplasmic extract; also called clone nr) VHH: EVQLVESGGGLVQAGGSLRLSCTVSGDVFVRYTMAWFRQAPGKEREFVATVTDSGRTTEYVDSVKGRFTVSRDNAKNTVYLQMNNLKPEDTAVYYCAANTDYFRIRSLDANTWGQGTQVTVSS | 0.00198 | 1.79
4 | FJ1427 P035MP02F02 (VHH, soluble VHH in periplasmic extract; also called clone nr; 110) VHH: EVQLVESGGGLVQAGGSLRLACALSGDVFVRYTMAWFRQAPGKEREFVASVTDSGRTTDYVASVQGRFTVSRDNNKNTVYLQMNSLKPEDTAVYYCAANTDYFQIRSLDRNTWGQGTQVTVSS | 0.000617 | 0.684
5 | FJ1427_P035MP02G09 (VHH, soluble VHH in periplasmic extract; also called clone nr) VHH: QVQLVESGGGLVQAGGSLRLSCTVSGDVFVRYTMAWFRQAPGKEREFVALVTDSGRTTEYVDSVKGRFTVSRDNAKNTVYLQMNNLKPEDTAVYYCAANTDYFRIRSLDANTWGQGTQVTVSS | 0.0011 | 0.527
6 | FJ1427 P035MP02G08 (VHH, soluble VHH in periplasmic extract; also called clone nr) VHH: QVQLVESGGGLVQAGGSLRLSCTVSGDVFVRYTMAWFRQAPGKEREFVASVTDSGRTTEYVHSVRGRFTVSRDNAKNTVYLQMNNLKPEDTAVYYCAANTDYFRIRSLDANTWGQGTQVTVSS | 0.00178 | 0.441
7 | FJ1427 P035MP02D08 (VHH, soluble VHH in periplasmic extract; also called clone nr) VHH: EVQLVESGGGLVQAGGSLRLSCVVSGDVFVRYTMAWFRQAPGKEREFVTSITDSGRTTEYVDSVKGRFTVSRDNAKNTVYLQMNNLKPEDTAVYYCAANTDYFRIRSLDANTWGQGTQVTVSS | 0.00236 | 0.905
8 | FJ1427_P035MP02E08 (VHH, soluble VHH in periplasmic extract; also called clone nr) VHH: EVQLVESGGGLVQAGGSLRLSCVVSGDVFVRYTMAWFRQAPGKEREFVAVVTDSGRTTEYVDSVKGRFTVSRDNAKNTVYLQMNNLKPEDTAVYYCAANTDYFQIRSVDNNAWGQGTQVTVSS | 0.000846 | 0.45
9 | FJ1427 P035MP02H10 (VHH, soluble VHH in periplasmic extract; also called clone nr) VHH: EVQLVESGGGLVQAGGSLRLSCAASGDVFVRYTMAWFRQAPGKEREFVASVTDSGRTTDYVDSVKGRFTVSRDNAKNTVYLQMNNLKPEDTAVYYCAANTDYFQIKSLDRNTWGQGTQVTVSS | 0.000757 | 0.435
10 | FJ1427 P035MP02D09 (VHH, soluble VHH in periplasmic extract; also called clone nr) VHH: QVQLVESGGGLVQAGGSLRLACALSGDVFVRYTMAWFRQAPGKEREFVASVTDSGRTTDYVASVQGRFTVSRDNNKNTVYLQMNSLKPEDTAVYYCAANTDYFQIRSLDRNTWGQGTQVTVSS | 0.000498 | 1.47
11 | FJ1427_P035MP02F09 (VHH, soluble VHH in periplasmic extract; also called clone nr) VHH: EVQLVESGGGLVQAGGSLRLSCAASGDVFVRYTMAWFRQAPGKEREFVASVTDSGRTTDYVDSVKGRFTVSRDNAKNTVYLQMNNLKPEDTAVYYCAANTDYFQIRSLEFNTWGQGTQVTVSS | 0.00107 | 1.47
12 | FJ1427_P035MP02F10 (VHH, soluble VHH in periplasmic extract; also called clone nr) VHH: EVQLVESGGGLVQAGGSLRLSCVVSGDVFVRYTMAWFRQAPGKEREFVAVVTDSGRTTEYVDSVKGRFTVSRDNAKNTVYLQMNNLKPEDTAVYYCAANTDYFQIRSVDNNAWGQGTQVTVSS | 0.000788 | 0.595
